The results in this text go back to paper PMC2946813.

The assay deals with human factor Xa (human) (UniProt P00742). Description: prothrombinase activity titration.
Sequence of UniProt P00742 (P00742 41-179, chain 1 of 2): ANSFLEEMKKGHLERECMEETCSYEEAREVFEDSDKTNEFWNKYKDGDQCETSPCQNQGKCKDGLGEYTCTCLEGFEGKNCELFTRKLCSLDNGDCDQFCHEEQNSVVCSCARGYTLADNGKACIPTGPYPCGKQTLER
Sequence of UniProt P00742 (P00742 235-488, chain 2 of 2): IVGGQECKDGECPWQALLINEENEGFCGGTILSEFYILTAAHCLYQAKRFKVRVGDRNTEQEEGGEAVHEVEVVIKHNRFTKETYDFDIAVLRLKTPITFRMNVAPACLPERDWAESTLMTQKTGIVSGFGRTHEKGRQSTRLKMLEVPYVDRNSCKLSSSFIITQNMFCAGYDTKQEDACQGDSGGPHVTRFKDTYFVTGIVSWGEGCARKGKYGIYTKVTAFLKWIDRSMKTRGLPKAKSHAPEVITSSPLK

“plasma-derived human factor V activated with α-thrombin (from UniProt P12259 29-737) (natural protein)”: the Kd – broadly, the equilibrium constant for the complex coming apart – amounted to 0.67 nM. This counts as sub-nanomolar.
